In the DeepSol protein solubility set:

Test: soluble on expression in E. coli; label from the status in PepcDB or PDB records

Sequence | soluble on expression in E. coli
GSMDQRQKLQHWIHSCLRKADKNKDNKMNFKELKDFLKELNIQVDDGYARKIFRECDHSQTDSLEDEEIETFYKMLTQRAEIDRAFEEAAGSAETLSVERLVTFLQHQQREEEAGPALALSLIERYEPSETAKAQRQMTKDGFLMYLLSADGNAFSLAHRRVYQDMDQPLSHYLVSSSHNTYLLEDQLTGPSSTEAYIRALCKGCRCLELDCWDGPNQEPIIYHGYTFTSKILFCDVLRAIRDYAFKASPYPVILSLENHCSLEQQRVMARHLRAILGPILLDQPLDGVTTSLPSPEQLKGKILLKGKKLGGLLPAGGENGSEATDVSDEVEAAEMEDEAVRSQVQHKPKEDKLKLVPELSDMIIYCKSVHFGGFSSPGTSGQAFYEMASFSESRALRLLQESGNGFVRHNVSCLSRIYPAGWRTDSSNYSPVEMWNGGCQIVALNFQTPGPEMDVYLGCFQDNGGCGYVLKPAFLRDPNTTFNSRALTQGPWWRPERLRVRIISGQQLPKVNKNKNSIVDPKVIVEIHGVGRDTGSRQTAVITNNGFNPRWDMEFEFEVTVPDLALVRFMVEDYDSSSKNDFIGQSTIPWNSLKQGYRHVHLLSKNGDQHPSATLFVKISIQD | soluble
MAMSQQDLPTLFYSGKSNSAVPIISESELQTITAEPWLEISKKGLQLEGLNFDRQGQLFLLDVFEGNIFKINPETKEIKRPFVSHKANPAAIKIHKDGRLFVCYLGDFKSTGGIFAATENGDNLQDIIEDLSTAYCIDDMVFDSKGGFYFTDFRGYSTNPLGGVYYVSPDFRTVTPIIQNISVANGIALSTDEKVLWVTETTANRLHRIALEDDGVTIQPFGATIPYYFTGHEGPDSCCIDSDDNLYVAMYGQGRVLVFNKRGYPIGQILIPGRDEGHMLRSTHPQFIPGTNQLIICSNDIEMGGGSMLYTVNGFAKGHQSFQFQLEHHHHHH | soluble
MIAKEKILKGFETAEARWARFGPYYAMFPLEFAFDVVEKYSKNGDYIIDPFAGRCSSIYAGGVLGRNSLGLEINPVGWLYGTVKLHPAEKEEVIDRLLEIYSKRNYYNRAIQKMPEFYRICYCDEVLKFLLAARTHLDWRNNKVDATLMSILLIYLHAKIGEGLSNQMRMTKSMGMNYSVQWWKKNNMTTPPEINPCDFILKKIEWRYEKGKPKVSESAVVFGDSSNKLISIAERAINNDIKFSLLFTSPPYYSITDYHADQWLRLWLLGGSENPQSLKDKHKGRFVNKQEYYDLLDNVFGLCAKMMKRESTVYVRTDKREFTFNSTLEILKRHFPNHSVKIVEKPLTKDTKTQTKLFGDKTMKPGEVDIIMSRK | not soluble
MAHHHHHHMSTSTTHVQKETILSLNYYEIFSLDPSARDVDFGSVHRAYRRFALLFHPDKDPSPAARAAFERVKLAAETLTDPQMRREYDEELLQKLQRSTGTGATSAWQRQQRDVMEEEALAADMILRQKEAATAAKAAAKREEELEKEAAAKQMLHELTNALTTPFKRMEEELVHEWEIDEDLLSMKEKEVESLLQKLREYNEGQGRHGRSVDAHTCGTKRRRSEEETASKV | soluble
MTEKSIDLSVDIAGLRLSNPVIAASGTFGFGREFVDYVDLNKIGGISVKGLTLEKRQGNRPPRIAETPAGILNSVGLQNPGVRAFIENEIPFLRKYNTKIIANIAGNTIEDYCKMAELLSDADIDAIELNVSCPNVKKGCVAFGNSPAGISEITSKVKKYCKKPLIVKLTPNVTDIKEIAVAAEAAGADALSLINTILGMAIDIHRKRPILANNVGGLSGPAVKPIAVRMVYEVCSVVKIPVIGMGGISSGEDAVEFMLAGASAVMVGTANFINPAACIDVVEGIKNYLKMYNHGSVYEIIGKLQLN | not soluble
MSLVKDIYSESIQIQIAASSMLSENITNATQMVMQCLLGGNKVIACGVSRSYANAQFLVSNLLNRYDLVRPSFPSVLLSLESAVGSSLVFEQPPEELYCHQFNASAKSGDLLIAFAPLGTEKIVLNIISHAVSKEVNVIVLTGSNNDAIQGILADKDLEISIPATKESRILENHLFVINALCELVDQTLFPSAEGGSHHHHHH | soluble
MGSDKIHHHHHHMDISRKIERLELFLEQDKDNLNLMLDLIYLSLDAGSIDIAENYLYRAQQQHPESSQLIYLSGLISCQRKNFEQGLITFNSLLSAGVRSASILYQAAYCNIQLGNPETALERLIHASELSPETEILYLLARTQYQLKNFELAVSTLTALADSDAKYAPAHSLLSQIYMDIEQWADAQASAAKALALDPNNVTANITIGFITLNSNQYDQAARHFSQALNVNDESCRTHLGLAIIDVFQQRYVEAEQHLLKALSLQNDLLPGINLLGWLYLLTDRFALARDVFDRGVEVDRSYAEMYGGIAIVDILEKDETAARKNVAIALRLDKMSYAGNFAKILLLQNAQRLSQAEKVWKNLISSPIDDTGKTLEQAVIEQIRAYLKVTLH | not soluble
